Laboratory results from the domain aggregation screens of Martell et al. (2025).

Assay: soluble fraction after stress (log2 fold change); higher = more stays soluble; pooled small domains, quantitative proteomics
Conditions: stress: pH 4
Outline: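 Following acid stress at pH 4, the amount of each small protein domain still soluble was measured in pooled custom libraries by high-throughput quantitative proteomics. Its fold change, on a log2 scale, is higher when more of the domain stayed soluble. This fold change is taken as a measure of aggregation propensity.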

| Sequence | soluble fraction (log2) |
| --- | --- |
| HMHWDIAQADAKQEVMDSSDDKEAIERIQANMFKDPKDHDQEYANKILNDMIDEIKEKGLEAMQHKFAQE | ≥ 0.43 |
| HMDQTKYDAIITEAKKLTAEGQYKESEEKLATIPVSDLGKPHYSIVKETVEKLNNQNNEGLKRQEEVAVE | -0.0626 |
| HMSVPEDLYFRELEVEGNKVRISGIASTNNRVSALMRNFDQSEWFRDPSLIKVESKSPGVNEFEIVMTRI | -0.761 |
| HMHIDQVIRERRLALGLTQEELANKIGVSAPAVSKWEKRVSYPDITLLPALARILGTDVNTLLTFS | -0.309 |
| HMVELGMSQNEFIQKFGKPFNKEMAYTYDKHKRETLFYKEDLYRGSWFIVTTAFTFVDSKLVSQEIVREER | -0.349 |
| HMDVRKSISDLKALGLSDAAVTVYGTIGNKPVHIDKIVSELGIPVFKVLTALTQLEMKGLVTAMQGRMYVL | -0.168 |
| HMGGKWSMPIIYILSKGKMRFKELERSVEGINTRMLVKELKNMEANGIVTREVFPTVPPTVEYALT | -0.178 |
| HMEIITIVSDINGKRIDAWLSEKLENYSRSFIQKLIQNENVKVNNNIVKANYKLKNGDAVAVSIPEPV | -0.261 |
| HMEDMMKALLDVVRAQHTATEGSEERPFDINDIIDMALNITGRPEEPEEQQELSDTIQKLAESLAPDIFP | -0.596 |
| HMRLSPTMVETLIAMLNRNAYPAYENNSRTFASLEERGLIQPDIEGNWSLTDTGHQTALKLLK | 0.0279 |
| HMLGERIRTLRKEIGMSVTELARRVKTSPSHISEIERGEKMPSLNLLVKIAKELKTSIDYLTGLVG | -0.487 |
| HMGTYSKQDLLQLIGRYPDGIGKREINLAFSKGTKIRNLLNIELNELLNERLITLSQGGLYIKP | ≥ 0.43 |
| HMTIRIPEEEYLTRAKRAAQMTAERGLDALFLFGSEGDFQNVRYFTSVTPIWERLGVVITASGKAAMLTGP | -0.0548 |
| HMAPLVTLEADGNGAVKLSNLAGHSIREVAGALGGAGLSLIPVGSGTSWKQNPAPGTVLHSGDTVTVYF | 0.22 |
| HMESGFEAVREVARHGSFANAAKALGVSGPAVSRQVKSLEERLGLVFFHRTTRMVTLTEAGQQLVDTLD | -0.211 |
| HMAVEETFTITWLDRDGTVLEVDENVLKGTMPSFDGHIPPHDGLEFKGWDPEVVPVEGDATYTATYKA | -0.454 |
| HMDKWFPVSSDHKVQVGDYLRTADGLVKVEATHNEYGTFYGKIITAIHDDVVKGETYEYRIDDVQVLA | -1.77 |
| HMANMTAKQINMFGDKLSRDKDFQSYYIAKSGDSREQYAQDIKGKLLDPFYVNAWMPYLEKIGFVPS | 0.106 |
| HMGKTEMPFSTFLTEVDKGNIVSVDIRGSEISGNFRDGKGFKTYSPNYPNLVEKLSAKGVAITAGPR | 0.295 |
| HMPKTATIVIDLNYADAKEIVENLQTILAGETKDISVAPHPSANQIIASGDRWEVENISTIIKQLDR | -1.02 |
| HMLKDGPIGAYADSVIRDIIEKMERFSKEHINVDMLKIHEKIMLIDEPIIRMALLDEFHRVSHDN | -1.2 |
| HMRPRGTRLPTGWTPSSDALDWTKAEKPGLDPLQTLEKFRDYWTAQPGQKGVKTDWDATWRNWVRREIP | 0.0989 |
| HMSTSEQVYTTDKVNVRREADTSSEKLGSLEKGTAISRTGTEGEWSVVNYGGVTGYIKTEFLTTEQPQ | 0.224 |
| HMLNKRQAEILAEVSRLKEITPSELYKLQPNVSSRTLRRDMDVLVNKGLVSQDGSTKSTKYTYL | 0.102 |
| HMQSVSANSVQKQLADIIDGEDKTHPLSDRELTEKLVAQGVQISRRTVAKYREAMGIPGASGRKQ | 0.107 |
| HMDLPATVPNLEGLTEVTARNKLTVAGLSLGEVKEVESDKEKGTVVGQSIAYGKRVTKGTKVDIEISSGK | 0.318 |
| HMKIELTDQQKSLVVDEWNKGEANPPSLLQLIRLAYPDQPHLDGRSKEGKAVKAFLATRDINPLA | -0.0382 |
| HMIEGEQVRLLRLLERQEGGMLPLGDKSPASDILLLTGMSKKTFKMAVGALYKAQMITMTPTSIKLVK | 0.386 |

| Sequence | soluble fraction (log2) |
| --- | --- |
| HMVENMDEFIGRVRRLVSDRLDLLKEASDDEIRETISQVVLELSREQFLTLNEKKTVLEGVFNSMR | -1.38 |
| HMELPSDEHLDDISHLARIGHKKGLQEKIIQLEQQGLASAEFIQQLKTLTNNFQFEKIIQWVDSEL | -0.848 |
| HMPSKTFYNLSQEKQQKIIDASEKEFSNNLYQDVSLNQIIKNSNISRGSFYMYFTDKEDLYFYLLNEY | ≥ 0.43 |
| HMTTHEQVAILRRELNGLVGAWHHRTGQAHGVTHSKLRKELGGPPAAVASAAQLSARIEKIRQWAT | -0.0306 |
| HMDPTHDMHFLVKDQVTGQPLPNMPYRLQLDNGQTLTGRTDALGMTEKISGHSPHIASIEVPY | 0.025 |
| HMLGDAWSMLILRDAHSGFSRFDQFRKSLGIAPTMLTKRLSVLVDEGLLEKRQYSEHPPREEYVLTQAGQD | 0.149 |
| HMSRARSRQTSMLEAVAGLGPARRRALLKQFGGLQGVLRAGIEDLSRAPGIGPALAQAIFEHLHPGA | -0.0797 |
| HMKKGATVSGVIVEKTKKSLIIDLGAKTEGVVADKEFEFAIDFVKELKKGDEVKAIVISTDNDKGQVVLSL | ≥ 0.43 |
| HMGGFNATTLQNIEELRRSLSDADQFGRHEVIETIGGSDSRAGKLLKKMLEAGIIEQVKGHGKGRYRFKRT | 0.0979 |
| HMKKTFSKSSVMEAIFRDIPNITIPNAHEVYTLIKNISVMNKRKSITSEDIEKAYDALGLTP | 0.145 |
| HMYPGQILEIYLDEIKRLYLNGLSSADIFAEIKEGSIPSVKKAIRSMKDGSAPVKITEAEESTRIAPS | -0.785 |
| HMAHESYVKEQLLLSLTNHEDPIMQISLIEQLTKMHERNIIHELEKLTVDVQTNEEVKVQAYASLLILS | -0.962 |
| HMQEDQKTSIFDIEGVEKGVASVLSSIKVEIVSDLLEADMDDILKSGKISEDDLDGVYEAVQNFVER | -1.28 |
| HMDKFTYVVKKEDEQYQIKDILRHNFTFSSRLRKKLKQNNSIFLNGAETVGWATPKEGDIISVRLP | 0.219 |
| HMAGTRRFELVEGSSSKFWEVTVADGSYTVTYGRIGTAGGSKTTESATAEADAEKLVREKLKKGYQEAGAA | 0.128 |
| HMDEFTIILEDAGSQKIAVIKEVRVLNSSLGLKEAKDLVDATPATIMEKADKATADKAKAAFEAAGAKVTI | -0.75 |
| HMSKQIEVPDVTDMTVSDAIDVLQDKGFVVSDEQKEVASSEIEEGRVVRTSPAVGSKRKDGTVVTLYVSI | -0.479 |
| HMLSVKEQTYQIIKEKILNQEYPAGARININELAEELGISNSPIREALSLLEQQGLVISNRSSGATVT | -0.772 |
| HMGKTKFTEMSALELKAYAELNNNSMHWVYRMLYIGGGDVGFRKGMKELGYSGKFIWMTLERLKKS | -0.583 |
| HMIISMKKTATKEQIAHVRELIEGMGYKAHMSVGAERVIFGAIGDERGKERLVSLEAQPGVEKVIPIL | ≥ 0.43 |
| HMDSATDRVALKELLNTLSARERTIITLRYFSDQTQTQVAKSLGISQVQVSRLENAILQRLRKL | -0.271 |
| HMPGLPLWAFSTRGSAIHTGASFRDGDGLLFGPESRGLPDWLLEEVGQDRVLRLPMRPGSRSLNLSNAV | -1.7 |
| HMGGKYKGVIIGHLIDKTLRYNELQKLISHATPKMLIQQLKELEADGIIQRKLYPVVPPKTEYSLTERG | -0.0376 |
| HMKRITAVISQKKGRDYYYIIVSYYLSNGKRVQRWIKTEFPINGNNKRKLEQKRIEVLQEWQDKLV | -0.486 |
| HMSPFYILDEVEAALDDTNLGRLLEIYEELRENSQLLVITHQKRTMEVGDALYGVTMRGDGVSAVISQRLR | -1.74 |
| HMKRRSLQVGDIVQVRSLNVKGEVVSIGKNEVVVAVGRLQMRAGFDDLDFKERPKEEREVESV | 0.0749 |
| HMPSSAYGPYKNVFLSNSELTKLKNELPTSWEHYINRLSEYMRSTGRQYQSHAATILRWAATDRNS | 0.0263 |
